Consider 1 sequence from US9879058B2, “Use of compounds that selectively modulate astrocytic release of substances through hemichannels of connexins and pannexins, without influencing gap junctions, for the treatment of psychiatric disorders” (Universidad Andres Bello, priority 2012, dated 2018).

The target in experiment [1] is T1, Cx43 gap junction channels (Rattus norvegicus, UniProt P08050).
T1 construct: endogenous in cells; host or cells: primary hippocampal astrocytes of newborn (PN1) rats
T1 sequence (P08050 whole entry): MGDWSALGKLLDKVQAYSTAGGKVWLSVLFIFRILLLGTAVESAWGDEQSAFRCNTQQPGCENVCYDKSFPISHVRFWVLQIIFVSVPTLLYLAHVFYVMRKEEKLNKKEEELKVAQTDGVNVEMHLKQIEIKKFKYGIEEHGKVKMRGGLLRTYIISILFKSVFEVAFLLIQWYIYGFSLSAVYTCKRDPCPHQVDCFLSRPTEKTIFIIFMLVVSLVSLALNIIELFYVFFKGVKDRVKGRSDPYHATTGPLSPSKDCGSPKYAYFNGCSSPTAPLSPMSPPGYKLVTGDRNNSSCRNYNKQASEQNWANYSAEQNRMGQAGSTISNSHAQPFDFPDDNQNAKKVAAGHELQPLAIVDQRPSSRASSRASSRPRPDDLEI
The experiment is described as follows: Lucifer yellow dye coupling in astroglial cultures. In kind it is cell-based. As to the method: F. Immunohistochemistry: Brain slices previously fixed in buffered 4% paraformaldehyde and maintained in 30% sucrose were mounted in gelatin coated glass slides. After rinsing with PBS, slices were blocked and permeabilized with 1% bovine serum albumin (BSA, Sigma-Aldrich), and 3% Triton X-100 in PBS for 1 h at room temperature. After rinsing again, sections were incubated overnight at 4° C. with the primary anti-Cx43 antibody (Sigma). Afterwards, sections were rinsed with PBS and incubated for 1 h at 37° C. with Alexa Fluor® 488-conjugated secondary antibody. To identify neurons and astrocytes, sections were incubated overnight at 4° C. with either monoclonal anti-MAP2 (M 4402, Sigma-Aldrich, St-Louis, Mo.) for neurons or polyclonal anti-GFAP (Sigma-Aldrich, St-Louis, Mo.) for astrocytes. Sections were washed and incubated for 1 h at 37° C. with Alexa Fluor® 568-conjugated secondary antibodies. Finally, slides were washed and permanently mounted using ProLong® (invitrogen). Staining specificity was assayed by incubation of sections in the absence of the primary antibody. Samples were examined using laser scanning confocal microscopy on a Fluoview FV1000 (Olympus). G. Primary Cell Cultures: G.1. Astrocyte cultures: Primary astrocyte cultures were prepared from hippocampus of newborn (PN1) rats. […]
J. Dye Coupling: Astrocytes plated on glass coverslips were bathed with recording medium (HCO3-free F-12 medium buffered with 10 mM HEPES, pH 7.2) and intercellular communication mediated by gap junctions was tested by evaluating the transfer to neighboring cells of Lucifer yellow (LY) (Sigma-Aldrich, St-Louis, Mo.) microinjected into one cell. […] The coupling index was calculated as the mean number of cells to which the dye spread. K. Data Analysis: Data were expressed as Mean+SD. Statistical differences were assessed by unpaired student's t-test (Mann-Whitney) and by one-way analysis of variance (ANOVA) for multiple comparisons, followed by Dunns post hoc test, and considered significant when p<0.05. p-values in the text are written as either <0.01% or <0.05%.

Experiment [2] deals with hippocampal primary neuronal cultures. In words: ATP and glutamate release in neuronal cultures. In kind it is cell-based, rat. As to conditions: peptide 1 mM; neuronal cultures without astrocytes. As for the experimental part: G.2. Neuronal cultures: Hippocampal neurons were obtained from hippocampus of E18 rats. Briefly, hippocampi were dissected as mentioned above for astrocyte cultures. Cells were seeded directly on poly-L-ornithine coated coverslips (1×10^5 cells/coverslip) in Neurobasal medium supplemented with penicillin (5 U/ml), streptomycin (5 μg/ml), B27 supplement and glutamax. Partial medium changes (¼) were done twice a week. H. Dye uptake: For single image visualization of dye uptake, astrocytes were bathed in recording solution [in mM: NaCl (148), KCl (5), CaCl2 (1.8), MgCl2 (1), glucose (5), HEPES (5), pH=7.4] containing 5 μM ethidium (Etd) (Sigma-Aldrich, St-Louis, Mo.), and fluorescence intensity was recorded for 10 min in selected cells (ROI, regions of interest). […] Metafluor software (version 6.2R5, Universal Imaging Co., Downingtown, Pa., USA) was used for off-line image analysis and fluorescence quantification.
I. Measurement of ATP and glutamate release induced by TAT-Cx43L2: Neurons were plated in multi well culture trays (10^6 cells/well/0.5 ml) and 48 h later were used for experiments. Extracellular ATP was measured by luciferin/luciferase bioluminescence assay kit (Sigma-Aldrich, St. Louis, Mo., USA). […]

For a further experiment, the target named is T2, Cx43 hemichannels (Rattus norvegicus, UniProt P08050).
T2 construct: endogenous in cells; host or cells: primary hippocampal astrocytes of newborn (PN1) rats
T2 sequence (P08050 whole entry): as above
In words: Ethidium (Etd) dye uptake in astrocytes. In kind it is cell-based. As to conditions: 10 min preincubation. As for the experimental part:
F. Immunohistochemistry: Brain slices previously fixed in buffered 4% paraformaldehyde and maintained in 30% sucrose were mounted in gelatin coated glass slides. After rinsing with PBS, slices were blocked and permeabilized with 1% bovine serum albumin (BSA, Sigma-Aldrich), and 3% Triton X-100 in PBS for 1 h at room temperature. After rinsing again, sections were incubated overnight at 4° C. with the primary anti-Cx43 antibody (Sigma). Afterwards, sections were rinsed with PBS and incubated for 1 h at 37° C. with Alexa Fluor® 488-conjugated secondary antibody. […]
G.2. […] H. Dye uptake: For single image visualization of dye uptake, astrocytes were bathed in recording solution [in mM: NaCl (148), KCl (5), CaCl2 (1.8), MgCl2 (1), glucose (5), HEPES (5), pH=7.4] containing 5 μM ethidium (Etd) (Sigma-Aldrich, St-Louis, Mo.), and fluorescence intensity was recorded for 10 min in selected cells (ROI, regions of interest). […] Metafluor software (version 6.2R5, Universal Imaging Co., Downingtown, Pa., USA) was used for off-line image analysis and fluorescence quantification.
For data representation, the average of two independent background fluorescence intensity measurements (FB, expressed as arbitrary units, AU) was subtracted from the fluorescence intensity in each cell (F1). […] Slopes of dye uptake were calculated using Microsoft Excel software and expressed as AU/min. […]

Experiment [3] deals with Cx43 gap junction channel (Homo sapiens, UniProt P17302). The following applies: cited from earlier work.
Cx43 gap junction channel, sequence (P17302 whole entry): as the sequence (P08050 whole entry) above, with E124D, V164I, R243K, T251S, P253A, S257A, P263Q, A344S, V347L counted along it

Entries after “also recorded” stand apart in the source; their conditions may differ. No end group written: not given here.

For the sequence “YGRKKRRQRRRDGANVDMHLKQIEIKKFKYGIEEHGK [TAT-Cx43L2, synthetic cell-permeable peptide corresponding to the Cx43L2 region (aa 119-144) of the cytoplasmic loop of Cx43]”, the “astroglial coupling (intracellular transfer of LY)” value in experiment [1] (1 mM, 10 min incubation, hippocampal astroglial cultures) is “did not affect astroglial coupling”. Moreover, in experiment [1] (n=3), the astrocyte coupling incidence entry is recorded as “had no effect on astrocyte coupling incidence” and the astrocyte coupling index result is on record as “had no effects on astrocyte coupling index”. In experiment [2], the “ATP release in neuronal cultures” value was “did not affect” and the “glutamate release in neuronal cultures” value is “did not affect”. The “hemichannel activity (Etd uptake)” value with Cx43 hemichannels (control conditions) was “blocked astrocyte hemichannel activity; also recorded: inhibited hemichannel activity”. Moreover, in the experiment with Cx43 hemichannels (divalent cation-free solution (DCFS)), the “hemichannel activity (Etd uptake)” value is on record as “complete inhibition of hemichannel activity; also recorded: reduced Etd uptake to the same level as in control cells”. In addition, in experiment [3], the “effect on Cx43 gap junction channel communication, previously shown” value is “without affecting Cx43 gap junction channel communication”.
